What was measured:
TRIM25 PRY/SPRY = TRIM25 PRY/SPRY (UniProt Q14258 439-630); assay: ITC; ITC and filter binding: 20 mM MES pH 6.5, 75 mM NaCl, 0.5 mM TCEP (ITC 20 C, filter binding on ice); NMR: 20 mM Na phosphate pH 6.5, 150 mM NaCl, 2 mM TCEP, 293 K; settings: protein: recombinant; tags: His-Trx (removed); chain copies: 3; hairpin
TRIM25 CC = TRIM25 CC (UniProt Q14258 189-379); assay: as above; settings: protein: recombinant; tags: His-Trx (removed); chain copies: 2; hairpin
TRIM25 CC-PRY/SPRY [1] = target: T1, TRIM25 CC-PRY/SPRY (UniProt Q14258 189-630); assay: filter binding; ITC and filter binding: 20 mM MES pH 6.5, 75 mM NaCl, 0.5 mM TCEP (ITC 20 C, filter binding on ice); NMR: 20 mM Na phosphate pH 6.5, 150 mM NaCl, 2 mM TCEP, 293 K; settings: protein: recombinant; tags: His-Trx (removed); chain copies: 2; hairpin
TRIM25 CC-PRY/SPRY K602E [2] = target: T2, TRIM25 CC-PRY/SPRY K602E (UniProt Q14258 189-630, K602E); assay: ITC; second fitted site; ITC and filter binding: 20 mM MES pH 6.5, 75 mM NaCl, 0.5 mM TCEP (ITC 20 C, filter binding on ice); NMR: 20 mM Na phosphate pH 6.5, 150 mM NaCl, 2 mM TCEP, 293 K; settings: protein: recombinant; tags: His-Trx (removed); chain copies: 2; hairpin
[3] = target: T3, TRIM25 CC-PRY/SPRY triple mutant (UniProt Q14258 189-630, H505E;K508E;K602E); assay: as above; settings: protein: recombinant; tags: His-Trx (removed); chain copies: 2; hairpin
[4] = target: T4, TRIM25 CC-PRY/SPRY Y463S/Y476S (UniProt Q14258 189-630, Y463S;Y476S); assay: as above; settings: protein: recombinant; tags: His-Trx (removed); chain copies: 2; hairpin
[5] = target: T5, TRIM25 CC-PRY/SPRY K283A/K285A (UniProt Q14258 189-630, K283A;K285A); assay: as above; settings: protein: recombinant; tags: His-Trx (removed); chain copies: 2; hairpin
[6] = target: T6, TRIM25 CC-PRY/SPRY H505E/K508E (UniProt Q14258 189-630, H505E;K508E); assay: as above; settings: protein: recombinant; tags: His-Trx (removed); chain copies: 2; hairpin
[7] = target: T7, TRIM25 CC-PRY/SPRY penta-mutant (UniProt Q14258 189-630, K283A;K285A;H505E;K508E;K602E); assay: as above; settings: protein: recombinant; tags: His-Trx (removed); chain copies: 2; hairpin
TRIM25 CC-PRY/SPRY [8] = target: T1, TRIM25 CC-PRY/SPRY; assay: ITC; highest affinity site; ITC and filter binding: 20 mM MES pH 6.5, 75 mM NaCl, 0.5 mM TCEP (ITC 20 C, filter binding on ice); NMR: 20 mM Na phosphate pH 6.5, 150 mM NaCl, 2 mM TCEP, 293 K; settings: protein: recombinant; tags: His-Trx (removed); chain copies: 2; hairpin
TRIM25 CC-PRY/SPRY K602E [9] = target: T2, TRIM25 CC-PRY/SPRY K602E; assay: ITC; first of two fitted sites; ITC and filter binding: 20 mM MES pH 6.5, 75 mM NaCl, 0.5 mM TCEP (ITC 20 C, filter binding on ice); NMR: 20 mM Na phosphate pH 6.5, 150 mM NaCl, 2 mM TCEP, 293 K; settings: protein: recombinant; tags: His-Trx (removed); chain copies: 2; hairpin
[10] = target: T3, TRIM25 CC-PRY/SPRY triple mutant; assay: as above; settings: protein: recombinant; tags: His-Trx (removed); chain copies: 2; hairpin
[11] = target: T4, TRIM25 CC-PRY/SPRY Y463S/Y476S; assay: as above; settings: protein: recombinant; tags: His-Trx (removed); chain copies: 2; hairpin
[12] = target: T5, TRIM25 CC-PRY/SPRY K283A/K285A; assay: as above; settings: protein: recombinant; tags: His-Trx (removed); chain copies: 2; hairpin
[13] = target: T6, TRIM25 CC-PRY/SPRY H505E/K508E; assay: as above; settings: protein: recombinant; tags: His-Trx (removed); chain copies: 2; hairpin
[14] = target: T7, TRIM25 CC-PRY/SPRY penta-mutant; assay: as above; settings: protein: recombinant; tags: His-Trx (removed); chain copies: 2; hairpin

T3 sequence (Q14258 189-630 H505E/K508E/K602E): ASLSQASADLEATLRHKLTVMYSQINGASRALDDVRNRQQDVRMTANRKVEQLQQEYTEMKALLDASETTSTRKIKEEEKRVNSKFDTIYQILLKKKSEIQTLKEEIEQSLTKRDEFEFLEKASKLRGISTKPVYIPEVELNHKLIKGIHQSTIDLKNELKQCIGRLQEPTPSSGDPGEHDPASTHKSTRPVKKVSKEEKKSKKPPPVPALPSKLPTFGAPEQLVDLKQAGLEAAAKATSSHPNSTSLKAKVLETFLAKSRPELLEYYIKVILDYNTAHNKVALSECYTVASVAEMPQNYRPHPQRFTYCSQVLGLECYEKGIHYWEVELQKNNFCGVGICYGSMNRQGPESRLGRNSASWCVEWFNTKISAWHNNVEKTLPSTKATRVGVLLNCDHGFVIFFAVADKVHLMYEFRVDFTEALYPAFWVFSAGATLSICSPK
T7 sequence (Q14258 189-630 K283A/K285A/H505E/K508E/K602E): as the sequence (Q14258 189-630 H505E/K508E/K602E) above, with K95A, K97A counted along it
T4 sequence (Q14258 189-630 Y463S/Y476S): as the sequence (Q14258 189-630 H505E/K508E/K602E) above, with Y275S, Y288S, E317H, E320K, E414K counted along it
T5 sequence (Q14258 189-630 K283A/K285A): as the sequence (Q14258 189-630 H505E/K508E/K602E) above, with K95A, K97A, E317H, E320K, E414K counted along it
T1 sequence (Q14258 189-630): as the sequence (Q14258 189-630 H505E/K508E/K602E) above, with E317H, E320K, E414K counted along it
T2 sequence (Q14258 189-630 K602E): as the sequence (Q14258 189-630 H505E/K508E/K602E) above, with E317H, E320K counted along it
T6 sequence (Q14258 189-630 H505E/K508E): as the sequence (Q14258 189-630 H505E/K508E/K602E) above, with E414K counted along it
Chain of TRIM25 CC (Q14258 189-379): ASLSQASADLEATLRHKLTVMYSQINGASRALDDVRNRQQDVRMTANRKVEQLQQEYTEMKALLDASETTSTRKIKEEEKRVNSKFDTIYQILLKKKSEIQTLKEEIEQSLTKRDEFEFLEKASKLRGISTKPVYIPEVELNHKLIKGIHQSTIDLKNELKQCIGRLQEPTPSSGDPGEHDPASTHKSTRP
Chain of TRIM25 PRY/SPRY (Q14258 439-630): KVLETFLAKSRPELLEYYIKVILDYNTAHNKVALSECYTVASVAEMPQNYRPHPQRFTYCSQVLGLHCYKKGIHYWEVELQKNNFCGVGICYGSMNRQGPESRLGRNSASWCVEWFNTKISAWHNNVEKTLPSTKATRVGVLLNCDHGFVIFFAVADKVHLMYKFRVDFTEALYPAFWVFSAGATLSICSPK

Binder: GUAUAGUUUAAAAGGAGAUAACUAUAC (structured_RNA) [pre-let-7a-1@2]
- Kd (TRIM25 PRY/SPRY): 5000 ± 1200 nM
- Kd (TRIM25 CC): 8100 ± 3100 nM
- Kd (TRIM25 CC-PRY/SPRY [1]): 10.2 ± 3.8 nM
- Kd (TRIM25 CC-PRY/SPRY K602E [2]): 2540 ± 120 nM
- Kd [3]: 132000 ± 24000 nM
- Kd [4]: 17000 ± 11000 nM
- Kd [5]: 16600 ± 2100 nM
- Kd [6]: 4190 ± 500 nM
- Kd [7]: 124000 ± 28000 nM
- Kd (TRIM25 CC-PRY/SPRY [8]): 72 ± 33 nM
- Kd (TRIM25 CC-PRY/SPRY K602E [9]): 196 ± 22 nM
- Kd [10]: 790 ± 160 nM
- Kd [11]: 252 ± 61 nM
- Kd [12]: 606 ± 124 nM
- Kd [13]: 484 ± 48 nM
- Kd [14]: 1320 ± 370 nM

From article doi:10.1101/2020.05.04.070177, “Mechanistic insights into RNA binding and RNA-regulated RIG-I ubiquitination by TRIM25” (bioRxiv, 2020)
